Blank lines part the entries; values can stand above or below the binder they belong to.
B1: serine hydroxymethyltransferase, cytosolic (SHMT1), as used in MST (enzyme, UniProt P34896 1-483, looked up)
chain: MTMPVNGAHKDADLWSSHDKMLAQPLKDSDVEVYNIIKKESNRQRVGLELIASENFASRAVLEALGSCLNNKYSEGYPGQRYYGGTEFIDELETLCQKRALQAYKLDPQCWGVNVQPYSGSPANFAVYTALVEPHGRIMGLDLPDGGHLTHGFMTDKKKISATSIFFESMPYKVNPDTGYINYDQLEENARLFHPKLIIAGTSCYSRNLEYARLRKIADENGAYLMADMAHISGLVAAGVVPSPFEHCHVVTTTTHKTLRGCRAGMIFYRKGVKSVDPKTGKEILYNLESLINSAVFPGLQGGPHNHAIAGVAVALKQAMTLEFKVYQHQVVANCRALSEALTELGYKIVTGGSDNHLILVDLRSKGTDGGRAEKVLEACSIACNKNTCPGDRSALRPSGLRLGTPALTSRGLLEKDFQKVAHFIHRGIELTLQIQSDTGVRATLKEFKERLAGDKYQAAVQALREEVESFASLFPLPGLPDF
modifications: fluorescently labeled in the SHMT-TS titration only; unlabeled titrant in the other MST experiments
notes: cytosolic serine hydroxymethyltransferase (SHMT1); Same preparation as m1; source: recombinant, overexpressed, purified (Ni-NTA, dialysis)
B2: serine hydroxymethyltransferase, cytosolic (SHMT1), His-tagged, immobilised in QCM-D (enzyme, UniProt P34896 1-483, looked up)
chain: MTMPVNGAHKDADLWSSHDKMLAQPLKDSDVEVYNIIKKESNRQRVGLELIASENFASRAVLEALGSCLNNKYSEGYPGQRYYGGTEFIDELETLCQKRALQAYKLDPQCWGVNVQPYSGSPANFAVYTALVEPHGRIMGLDLPDGGHLTHGFMTDKKKISATSIFFESMPYKVNPDTGYINYDQLEENARLFHPKLIIAGTSCYSRNLEYARLRKIADENGAYLMADMAHISGLVAAGVVPSPFEHCHVVTTTTHKTLRGCRAGMIFYRKGVKSVDPKTGKEILYNLESLINSAVFPGLQGGPHNHAIAGVAVALKQAMTLEFKVYQHQVVANCRALSEALTELGYKIVTGGSDNHLILVDLRSKGTDGGRAEKVLEACSIACNKNTCPGDRSALRPSGLRLGTPALTSRGLLEKDFQKVAHFIHRGIELTLQIQSDTGVRATLKEFKERLAGDKYQAAVQALREEVESFASLFPLPGLPDF
notes: cytosolic serine hydroxymethyltransferase (SHMT1); Purified and stored with 50 uM pyridoxal phosphate; Captured by its His tag on the QSX340 sensor; also called His-tagged SHMT; His-tagged SHMT1; source: recombinant, overexpressed, purified (Ni-NTA, dialysis)

Key:
Conditions in all cases: both partners purified
[1] = biological target: T1, labeled DHFR with a constant concentration of TS (9.0 uM), MST tri-complex assay ( | human, UniProt P00374 1-187; P04818 1-313, fluorescently labeled (dye and site not stated)); experiment: MST; tri-complex: constant labeled DHFR and TS or pTS (9.0 uM), SHMT titrated 157 uM-4.79 nM; Kd model fit
T1 construct: dihydrofolate reductase (DHFR); human thymidylate synthase (TS); A mixture at constant concentrations, not a purified complex; also called DHFR/TS; source: purified recombinant proteins mixed: constant labeled DHFR and 9.0 uM TS
T1 sequence (P04818 whole entry, one chain of several): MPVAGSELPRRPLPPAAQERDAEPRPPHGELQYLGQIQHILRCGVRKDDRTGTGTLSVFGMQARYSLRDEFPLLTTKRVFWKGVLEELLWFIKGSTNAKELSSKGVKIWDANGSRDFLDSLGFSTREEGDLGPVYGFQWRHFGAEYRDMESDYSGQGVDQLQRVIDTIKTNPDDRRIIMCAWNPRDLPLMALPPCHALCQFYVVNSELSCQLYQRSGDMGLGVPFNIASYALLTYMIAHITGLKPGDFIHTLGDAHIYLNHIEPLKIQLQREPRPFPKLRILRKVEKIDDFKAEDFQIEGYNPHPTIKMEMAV

[2] = biological target: T2, labeled DHFR with a constant concentration of pTS (9.0 uM), MST tri-complex assay ( | human, UniProt P00374 1-187); P04818 1-313, fluorescently labeled (dye and site not stated) | phosphorylated in vitro by CK2alpha; residue not stated for this preparation (the introduction names serine 124 as the site of CK2-mediated …); experiment: as above
T2 construct: dihydrofolate reductase (DHFR); human thymidylate synthase (TS); A mixture at constant concentrations, not a purified complex; also called DHFR/pTS; source: purified recombinant proteins mixed: constant labeled DHFR and 9.0 uM pTS
T2 sequence (P04818 whole entry, one chain of several): as above

[3] = biological target: T3, mixture of DHFR and pTS introduced together in the three-protein QCM-D assay ( | human, UniProt P00374 1-187; P04818 1-313, phosphorylated in vitro by CK2alpha; residue not stated for this preparation (the introduction names serine 124 as the site of CK2-mediated phosphorylation of human TS)); experiment: QCM-D (quartz crystal microbalance with dissipation monitoring); three proteins: 5 uM His-tagged SHMT1 immobilised on the sensor; mixture of fixed pTS (1.0 uM) and DHFR 0.25-2.0 uM introduced; 20 mM Tris-HCl pH 7.6, 100 mM (salt not given), 10 mM MgCl2, 0.05% Tween 20, 25 C, 200 ul/min; Langmuir isotherm fit
T3 construct: dihydrofolate reductase (DHFR); human thymidylate synthase (TS); A mixture, not a purified preformed complex; only the DHFR concentration was varied; also called DHFR/pTS; fixed pTS and variable DHFR; source: purified recombinant proteins mixed: pTS fixed at 1.0 uM, DHFR 0.25-2.0 uM
T3 sequence (P04818 whole entry, one chain of several): as above

[4] = biological target: B2; experiment: QCM-D (quartz crystal microbalance with dissipation monitoring); two proteins: 5 uM His-tagged SHMT immobilised on His-tag capturing sensor QSX340; tagless ligand introduced (0.1-1.0 uM or 0.5-7.0 uM for TS, pTS or DHFR); 20 mM Tris-HCl pH 7.6, 100 mM (salt not given), 10 mM MgCl2, 0.05% Tween 20, 25 C, 200 ul/min; Langmuir isotherm fit
[5] = biological target: B1; experiment: MST; two proteins in solution, Premium capillaries: labeled DHFR with SHMT 157 uM-4.79 nM; labeled SHMT with TS 62.0 uM-1.9 nM; labeled pTS with SHMT 157 uM-4.79 nM; Kd model fit

Binder: B1
Kd [1]: 5.04 ± 0.5 µM | Kd [2]: 0.32 ± 0.05 µM

Binder: B2
Kd [3]: 0.28 ± 0.23 µM

Kd [4]: 12.1 ± 7.86 µM
B3: dihydrofolate reductase (DHFR), tagless ligand in QCM-D (enzyme, UniProt P00374 1-187, looked up)
chain: MVGSLNCIVAVSQNMGIGKNGDLPWPPLRNEFRYFQRMTTTSSVEGKQNLVIMGKKTWFSIPEKNRPLKGRINLVLSRELKEPPQGAHFLSRSLDDALKLTEQPELANKVDMVWIVGGSSVYKEAMNHPGHLKLFVTRIMQDFESDTFFPEIDLEKYKLLPEYPGVLSDVQEEKGIKYKFEVYEKND
notes: dihydrofolate reductase (DHFR); source: recombinant, overexpressed and purified as described previously (Antosiewicz et al., 2015; Skierka et al., 2019); His tag removed with Thrombin CleanCleave Kit

Kd [5]: 12.6 ± 0.66 µM
B4: dihydrofolate reductase (DHFR), fluorescently labeled, as used in MST (enzyme, UniProt P00374 1-187, looked up)
chain: MVGSLNCIVAVSQNMGIGKNGDLPWPPLRNEFRYFQRMTTTSSVEGKQNLVIMGKKTWFSIPEKNRPLKGRINLVLSRELKEPPQGAHFLSRSLDDALKLTEQPELANKVDMVWIVGGSSVYKEAMNHPGHLKLFVTRIMQDFESDTFFPEIDLEKYKLLPEYPGVLSDVQEEKGIKYKFEVYEKND
modifications: fluorescently labeled (dye and site not stated)
notes: dihydrofolate reductase (DHFR); also called labeled DHFR; source: recombinant, overexpressed and purified as described previously (Antosiewicz et al., 2015; Skierka et al., 2019)
